The test system of one experiment is PD2560. The experiment is described as follows: Cisplatin mediated cell death (cleaved caspase 3 immunoblot) with or without IL-22 pre-treatment. It counts as cell-based, murine. The method, then:
Chemoresistance is a well-established phenomenon in PDAC and is often responsible for disease progression and death. […] Cells were then treated with varying doses of cisplatin and cell death assessed by immunoblot for cleaved caspase 3. Degree of DNA damage was determined by measurement of phosphorylated histone 2AX (pH2AX), a marker of DNA damage triggered by cisplatin (ref. 39; incorporated by reference in its entirety). […] The differences in cell death appeared to be mediated by changes in DNA damage (FIG. 6 Panel B).
Background: In western blotting, separated proteins are transferred to a membrane and probed.

In experiment [1] the target is T1, IL-22 (Homo sapiens, UniProt Q9GZX6).
T1 sequence (Q9GZX6 34-179): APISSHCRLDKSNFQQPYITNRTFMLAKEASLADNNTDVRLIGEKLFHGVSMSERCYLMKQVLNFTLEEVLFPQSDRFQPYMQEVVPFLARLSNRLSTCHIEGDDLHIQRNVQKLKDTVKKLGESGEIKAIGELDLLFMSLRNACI
The experiment is described as follows: In vitro testing of fusion protein for sequestration and abrogation of STAT3 signaling. Type of experiment: cell-based. As to conditions: IL-22 species not stated, FIG. 6 Panel E. The method, then:
(§1) IL-22BP is an important regulator of IL-22 signaling at the tissue level and functions by sequestering cytokine and blocking its ability to bind to its cognate receptor. Its high affinity for IL-22 and neutralizing ability make it an attractive target for pharmacologic disruption of IL-22 signaling. To determine its efficacy in vitro, a fixed concentration of human and mouse IL-22 (100 ng/ml) was incubated for 30 minutes with increasing concentrations of human or mouse IL-22BP (0-1000 ng/ml). The mixture was then placed onto human and murine PDAC lines and IL-22 signaling measured by pSTAT3 activation at 15 minutes. […] A fusion protein which binds hIL-22BP to murine albumin was constructed.

In experiment [2] the target is T1, IL-22. The experiment is described as follows: Neutralization of human IL-22 by IL-22BP, read out as pSTAT3 activation in PDAC lines. Type of experiment: cell-based. As to conditions: IL-22 100 ng/ml incubated 30 minutes with IL-22BP 0-1000 ng/ml, pSTAT3 at 15 minutes in PDAC lines. The method, then: as §1
A further experiment deals with T2, mouse IL-22 (Mus musculus, UniProt Q9JJY9).
T2 sequence (Q9JJY9 34-179): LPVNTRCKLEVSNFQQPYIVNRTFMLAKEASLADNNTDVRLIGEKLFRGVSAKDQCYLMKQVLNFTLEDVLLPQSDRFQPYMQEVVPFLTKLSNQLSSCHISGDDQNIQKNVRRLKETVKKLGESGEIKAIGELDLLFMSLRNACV
Nature of the experiment: Neutralization of mouse IL-22 by IL-22BP, read out as pSTAT3 activation in PDAC lines. Type of experiment: cell-based. As to conditions: IL-22 100 ng/ml incubated 30 minutes with IL-22BP 0-1000 ng/ml, pSTAT3 at 15 minutes in PDAC lines. How it is done:
as §1

The target in experiment [3] is T3, IL-22BP-Alb fusion protein (human IL-22BP fused to murine albumin) (Homo sapiens; mouse, UniProt Q969J5 22-263).
T3 construct: also called fusion protein of hIL-22BP and albumin; not shown: serum albumin, mouse, cloned from mouse liver
T3 sequence: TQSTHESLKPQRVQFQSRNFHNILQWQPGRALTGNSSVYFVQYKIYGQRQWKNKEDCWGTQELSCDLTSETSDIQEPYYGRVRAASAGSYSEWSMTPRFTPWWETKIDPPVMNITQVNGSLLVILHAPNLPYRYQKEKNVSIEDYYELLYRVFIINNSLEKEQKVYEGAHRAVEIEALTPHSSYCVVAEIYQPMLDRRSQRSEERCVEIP
The experiment is described as follows: binding inferred from neutralisation of IL-22-induced pSTAT3 signaling in vitro. The method, then: as §1

The target in experiment [4] is T4, human IL-22 binding protein (IL-22BP) (Homo sapiens, UniProt Q969J5 22-263).
T4 construct: also called hIL-22BP; human IL-22BP
T4 sequence: T3 sequence
The experiment is described as follows: binding inferred from neutralisation of IL-22-induced pSTAT3 on PDAC cells (immunoblot).

A further experiment deals with PanIN cell lines. The experiment is described as follows: Matrigel invasion assay, PanIN lines. Type of experiment: cell-based, murine. As to conditions: IL-22 incubation; two PanIN cell lines with little to no invasive capability at baseline. The method, then:
(§2) To establish the role of IL-22 in pancreatic tumorigenesis in vitro, the murine PDAC line PKCY and PanIN lines 134, 5505 and 5552 were incubated in IL-22. Matrigel invasion assays were performed and number of infiltrating cells quantified. IL-22 incubation induced a 10-fold increase in invasion of PKCY cells compared to control conditions (untreated and IL-6) (FIG. 5 Panel A). […] Wild-type and IL-22 knockout mice were subcutaneously inoculated with equal quantities of PKCY cells. At 21 days, mice were sacrificed and tumor development, size and weight were determined.

Experiment [5] deals with human and mouse PDAC cell lines. Nature of the experiment: Immunoblotting for STAT3 and NF-κB activation after IL-22 incubation. It counts as cell-based. As to conditions: 100 ng/ml of IL-22 for 15 and 30 minutes. The text has this:
One of the principle signaling pathways activated by ligand binding at IL-22R1 is via JAK mediated phosphorylation of STAT3 (pSTAT3) (Refs. 7, 36, 37; incorporated by reference in its entirety). Because of constitutive association of STAT3 with the intracellular domain of the receptor, signaling is activated rapidly and efficiently upon IL-22 binding (ref 38; incorporated by reference in its entirety). A second, less described IL-22 signaling pathway is via NF-κB, which leads to transcription of genes associated with proliferation and prevention of apoptosis (ref. 6, 7; incorporated by reference in their entireties). To evaluate the ability of IL-22 to activate STAT3 and NF-κB in human and mouse PDAC, cell lines were incubated with 100 ng/ml of IL-22 for 15 and 30 minutes. […] To determine the presence of STAT3 activation in-vivo, IHC for pSTAT3 was performed on pancreata harvested from PKCY mice at 8 weeks (low-grade PanIN), 12 weeks (high-grade PanIN) and after ultrasound confirmation of PDAC. pSTAT3 staining was increased as lesions advanced from low grade PanIN to invasive cancer (FIG. 4B-D).

The next experiment relates to PKCY cells. The experiment is described as follows: Matrigel invasion assay, PDAC line. As to conditions: IL-22 incubation compared to control conditions (untreated and IL-6). Type of experiment: cell-based, murine. The method, then: as §2

As to `N.N.[Cl][Pt][Cl]` [cisplatin, reference compound], in the experiment on PD2560 (murine PDAC line PD2560, low and high doses), the “cell death by cisplatin (cleaved caspase 3)” value is reported as “showed sensitivity”.

B1: IL-22BP-Alb: fusion protein which binds hIL-22BP to murine albumin (protein)
chain: T3 sequence
modifications: left off: large carriers
Take B1: the “neutralization of IL-22 (sequestration and abrogation of STAT3 signaling)” value with IL-22 [1] is given as “capable of neutralizing IL-22”. The “neutralization of human IL-22 (pSTAT3 activation)” value with IL-22 [2] is “capable of binding and neutralizing”. The “neutralization of murine IL-22 (pSTAT3 activation)” value with mouse IL-22 was “capable of binding and neutralizing”.

B2: human IL-22 (ligand, UniProt Q9GZX6 34-179, looked up)
chain: T1 sequence (Q9GZX6 34-179)
notes: Used at a fixed 100 ng/ml
Turning to B2, the binding result in [3] and in [4] was “binds” throughout.

B3: IL-22: α-helical cytokine that binds the heterodimeric cell surface receptor IL-22R (protein, UniProt Q9GZX6 34-179, looked up)
Interleukin-22: T1 sequence (Q9GZX6 34-179)
With B3, the “invasion of PanIN cell lines” value with PanIN cell lines is recorded as “induced invasion”. In the experiment with PD2560 (PD2560 cultured in IL-22 for 4 days before cisplatin), the “effect of IL-22 pre-treatment on sensitivity to cisplatin” value is “diminished”. In addition, the pSTAT3 activation entry in experiment [5] is recorded as “robust pSTAT3 activation”. Also, the pNF-κB result in [5] (KPC and PKCY lines) was “modest increase”. The “increase in invasion of PKCY cells” value with PKCY cells was found to be 10 fold.

B4: murine IL-22BP: mouse interleukin-22 binding protein (SEQ ID NO: 2) (protein, listed as Mus musculus)
chain: MMPKHCLLGLLIILLSSATALEIQPARVSLTPQKVRFQSRNFHNILHWQAGSSLPSNNSIYFVQYKMYGQSQWEDKVDCWGTTALFCDLTNETLDPYELYYGRVMTACAGRHSAWTRTPRFTPWWETKLDPPVVTITRVNASLRVLLRPPELPNRNQSGKNASMETYYGLVYRVFTINNSLEKEQKAYEGTQRAVEIEGLIPHSSYCVVAEMYQPMFDRRSPRSKERCVQIP
B4: the “neutralization of human IL-22 (pSTAT3 activation)” value in the experiment with IL-22 [2] is given as “little sequestration”. The “neutralization of murine IL-22 (pSTAT3 activation)” value with mouse IL-22 is given as “little sequestration”.

B5: mouse IL-22 (ligand, UniProt Q9JJY9 34-179, looked up)
chain: T2 sequence (Q9JJY9 34-179)
notes: Used at a fixed 100 ng/ml; also called murine IL-22
For the molecule B5, the binding result in [3] and in [4] was “binds” each time.

B6: Human IL-22BP: human interleukin-22 binding protein, soluble receptor capable of cytokine neutralization (SEQ ID NO: 1) (protein, listed as Homo sapiens)
chain: MMPKHCFLGFLISFFLTGVAGTQSTHESLKPQRVQFQSRNFHNILQWQPGRALTGNSSVYFVQYKIYGQRQWKNKEDCWGTQELSCDLTSETSDIQEPYYGRVRAASAGSYSEWSMTPRFTPWWETKIDPPVMNITQVNGSLLVILHAPNLPYRYQKEKNVSIEDYYELLYRVFIINNSLEKEQKVYEGAHRAVEIEALTPHSSYCVVAEIYQPMLDRRSQRSEERCVEIP
Take B6: the “neutralization of human IL-22 (pSTAT3 activation)” value in the experiment with IL-22 [2] is “completely neutralizing”; with IL-22 [2] (listed as hIL-22BP), “capable of binding and neutralizing”. Moreover, the “neutralization of murine IL-22 (pSTAT3 activation)” value is “completely neutralizing” in the experiment with mouse IL-22; “capable of binding and neutralizing” with mouse IL-22 (listed as hIL-22BP).

Source of the values: US20200399347A1, “IL-22BP COMPOSITIONS AND METHOD FOR THE TREATMENT OF DISEASE THEREWITH” (The Regents of the University of Michigan, priority 2017, published 2020).
